From US20190375846A1 (ULTRAHUMAN ONE, published 2019)

T1: human GITR at the cell surface (human, UniProt Q9Y5U5 26-241)
T1 construct: whole, on cells; The cell type is named in the assay field of each row; also called human GITR+ cells; CHO-K1 human GITR+ cells
T1 sequence (looked up): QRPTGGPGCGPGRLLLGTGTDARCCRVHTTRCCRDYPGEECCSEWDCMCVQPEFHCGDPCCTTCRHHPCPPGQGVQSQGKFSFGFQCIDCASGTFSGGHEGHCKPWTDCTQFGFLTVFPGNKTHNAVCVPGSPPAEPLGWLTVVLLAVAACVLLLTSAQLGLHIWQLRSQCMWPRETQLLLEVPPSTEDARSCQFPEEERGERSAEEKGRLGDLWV

T2: hDR6-Fc (human, UniProt O75509)
T2 construct: recombinant Fc fusion; Member of the panel m8
T2 sequence (fusion chain, looked up): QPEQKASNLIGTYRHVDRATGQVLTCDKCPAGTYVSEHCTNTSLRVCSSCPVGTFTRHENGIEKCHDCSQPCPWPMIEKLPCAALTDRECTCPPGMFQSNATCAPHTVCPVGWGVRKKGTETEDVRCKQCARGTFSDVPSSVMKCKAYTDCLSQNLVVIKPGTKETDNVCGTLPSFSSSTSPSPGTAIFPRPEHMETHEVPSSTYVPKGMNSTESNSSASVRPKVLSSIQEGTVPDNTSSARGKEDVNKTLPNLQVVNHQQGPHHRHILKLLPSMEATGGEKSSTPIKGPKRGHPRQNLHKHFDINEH

T3: hDR3-Fc (human, UniProt Q93038)
T3 construct: recombinant Fc fusion; Member of the panel m8
T3 sequence (fusion chain, looked up): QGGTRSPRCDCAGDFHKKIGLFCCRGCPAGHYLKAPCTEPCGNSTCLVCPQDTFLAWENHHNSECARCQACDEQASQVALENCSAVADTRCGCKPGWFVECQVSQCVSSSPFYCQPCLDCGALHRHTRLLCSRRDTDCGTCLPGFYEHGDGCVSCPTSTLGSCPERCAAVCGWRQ

T4: hOX40-Fc
T4 construct: Member of the panel m8; not shown: Fc part and any linker
T4 chain: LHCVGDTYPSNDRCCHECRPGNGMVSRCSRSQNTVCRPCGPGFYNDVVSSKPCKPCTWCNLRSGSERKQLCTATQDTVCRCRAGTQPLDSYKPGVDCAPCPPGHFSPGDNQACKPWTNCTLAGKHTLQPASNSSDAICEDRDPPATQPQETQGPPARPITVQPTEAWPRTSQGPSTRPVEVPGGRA

T5: human GITR-Fc (human, UniProt Q9Y5U5 26-161)
T5 construct: Recombinant GITR-Fc; also called hGITR-Fc; hGITR; not shown: Fc part
T5 sequence (looked up): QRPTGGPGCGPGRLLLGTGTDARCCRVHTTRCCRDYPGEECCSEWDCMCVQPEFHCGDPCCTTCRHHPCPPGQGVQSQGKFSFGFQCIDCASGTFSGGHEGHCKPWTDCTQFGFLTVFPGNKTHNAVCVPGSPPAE


Legend:
[1] = biological target: T1, human GITR at the cell surface; experiment: flow cytometry, human GITR-transfected murine blastoma cells, 10,000-13.7 ng/ml
Description: (§1) Concentration-dependent binding to GITR at the cell surface was analysed using flow cytometry.

hDR6-Fc = biological target: T2, hDR6-Fc; experiment: direct ELISA on coated protein, IgG at 10 µg/ml, OD 450 nm
Description: (§2) Off-target homologue binding risk for mVH/mVL (FIG. 8A), VH3/VL2 (FIG. 8B) and lead engineered IgG clones G-G10 (FIG. 8C), I-C2 (FIG. 8D) and D-A6 (FIG. 8E) was examined by direct ELISA on GITR-Fc orthologs and a panel of 13 human TNFRSF and immunoglobulin superfamily proteins (as labelled on each X-axis). Binding to human, cyno and murine GITR-Fcs (h/c/mGITR-Fc) was performed at an IgG concentration of 1 μg/ml. Binding to all other proteins was performed at an IgG concentration of 10 μg/ml.
(§3) Anti-GITR antibodies were tested for polyreactivity by ELISA. Purified, recombinant, target and non-target antigens were coated in 96-well Nunc maxisorp plates at 100 ng per well in carbonate buffer, at 4° C. overnight. Plates were then washed 3× with PBS, blocked with 1% BSA in PBS, then washed 3× with PBS-Tween20. A dilution series of primary antibodies was then applied, plates were washed 3× with PBS-Tween20 followed by application of goat anti-human kappa chain-HRP 1:4,000 secondary antibody. Wells were then washed 3× with PBS-Tween20 and 2× with PBS, 100 μl TMB peroxidase substrate was added per well, the was reaction stopped by adding 100 μl 2M H₂SO₄ and absorbances were read at 450 nm. Anti-GITR antibodies were also tested for binding specificity by flow cytometry. HuT78 cells were activated by incubation with anti-CD3/anti-CD28 beads for 3 days. Naïve cells were incubated in media alone. At the end of the incubation the cells were harvested and the beads removed from the activated cells using a magnet. Cells were incubated with viability dye and then stained with anti-GITR antibodies at 4° C. […] Binding of VH1/VI1 and D-A6 IgG1 proteins were detected by subsequent incubation with a PE labelled goat anti-human IgG. Cells were fixed with 4% PFA before being stored in PBS at 4° C. overnight. Cells were analysed the next day using a BD Fortessa flow cytometer running Diva software. Analysis was performed using FlowJo software.

hDR3-Fc = biological target: T3, hDR3-Fc; experiment: as above
Description: as §2, §3

hICAM-1-Fc = biological target: T6, hICAM-1-Fc (human, UniProt P05362); experiment: as above
T6 construct: recombinant Fc fusion; Member of the panel m8
Description: as §2, §3

hOX40-Fc = biological target: T4, hOX40-Fc; experiment: as above
Description: as §2, §3

hCD4 = biological target: T7, hCD4 (human, UniProt P01730); experiment: as above
T7 construct: purified recombinant protein; Member of the panel m8
Description: as §2, §3

hLTBR-Fc = biological target: T8, hLTBR-Fc (human, UniProt P36941); experiment: as above
T8 construct: recombinant Fc fusion; Member of the panel m8
Description: as §2, §3

[2] = biological target: T9, cynomolgus monkey GITR at the cell surface (cynomolgus monkey); experiment: flow cytometry, cyno GITR-transfected murine blastoma cells, 10,000-13.7 ng/ml
T9 construct: whole, on cells; also called cyno GITR+ cells
Description: as §1

[3] = biological target: T10, cynomolgus monkey GITR-Fc (cynomolgus monkey (Macaca fascicularis)); experiment: direct ELISA, IgG at 1 µg/ml
T10 construct: also called cyno GITR-Fc; cGITR-Fc
Description: as §2, §3

human GITR-Fc = biological target: T5, human GITR-Fc; experiment: direct ELISA, IgG at 1 µg/ml
Description: as §2, §3

T6 sequence (P05362 28-480 limits assumed): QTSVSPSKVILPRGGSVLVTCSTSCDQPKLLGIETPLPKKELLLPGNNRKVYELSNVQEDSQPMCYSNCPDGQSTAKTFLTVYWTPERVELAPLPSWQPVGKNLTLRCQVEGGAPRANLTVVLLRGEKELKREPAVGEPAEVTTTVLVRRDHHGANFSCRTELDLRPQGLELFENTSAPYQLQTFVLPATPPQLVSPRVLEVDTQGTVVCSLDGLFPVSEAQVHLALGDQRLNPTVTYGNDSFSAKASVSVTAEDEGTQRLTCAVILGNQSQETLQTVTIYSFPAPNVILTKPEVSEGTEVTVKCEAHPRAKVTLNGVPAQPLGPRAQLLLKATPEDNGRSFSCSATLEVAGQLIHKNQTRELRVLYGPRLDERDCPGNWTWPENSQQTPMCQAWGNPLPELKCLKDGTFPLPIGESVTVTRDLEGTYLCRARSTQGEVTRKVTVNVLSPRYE
T8 sequence (P36941 28-227 limits assumed): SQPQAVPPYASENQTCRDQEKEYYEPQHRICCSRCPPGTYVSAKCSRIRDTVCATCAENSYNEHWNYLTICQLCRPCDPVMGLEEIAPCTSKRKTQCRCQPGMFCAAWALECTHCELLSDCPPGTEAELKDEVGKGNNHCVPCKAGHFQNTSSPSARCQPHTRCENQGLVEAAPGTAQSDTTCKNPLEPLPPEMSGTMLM

Row | Binder | concentration at maximum MFI [1] [ng/mL] | binding result (hDR6-Fc) | binding result (hDR3-Fc) | binding result (hICAM-1-Fc) | binding result (hOX40-Fc) | binding result (hCD4) | binding result (hLTBR-Fc) | concentration at maximum MFI [2] [ng/mL] | OD450 nm [3] [OD450 nm] | OD450 nm (human GITR-Fc) [OD450 nm]
1 | D-A6 IgG1 (antibody, V domains shown, Human IgG1) VH: EVQLVESGGGLVQPGGSLRLSCAASGFSLSTSGYGVGWVRQAPGKGLEWLAHIWWDDDKYYVDSVKGRFTISRDNAKNSLYLQMNSLRAEDTAVYYCARTRQYFPFAYWGQGTLVTVSS VL: EIVLTQSPATLSLSPGERATLSCRASQSVGSNLAWYQQKPGQAPRLLIYSASYRYTGIPARFSGSGSGTDFTLTISSLEPEDFAVYYCQQYSTDPLTFGGGTKVEIK | ~1110 | no binding (tested: 10 µg/ml) | no binding (tested: 10 µg/ml) | no binding (tested: 10 µg/ml) | no binding (tested: 10 µg/ml) | no binding (tested: 10 µg/ml) | no binding (tested: 10 µg/ml) | ~1110 | > 1 | > 3
2 | G-G10 IgG1 (antibody, V domains shown, Human IgG1) VH: EVQLVESGGGLVQPGGSLRLSCAASGFSLSTFGYGVGWVRQAPGKGLEWLAHIWWDDDKYYVDSVKGRFTISRDNAKNSLYLQMNSLRAEDTAVYYCARTRQYFPFAYWGQGTLVTVSS VL: EIVLTQSPATLSLSPGERATLSCRASQSVGTNLAWYQQKPGQAPRLLIYYASYRYTGIPARFSGSGSGTDFTLTISSLEPEDFAVYYCQQYSNDPLTFGGGTKVEIK | ~1110 | no binding (tested: 10 µg/ml) | no binding (tested: 10 µg/ml) | no binding (tested: 10 µg/ml) | no binding (tested: 10 µg/ml) | no binding (tested: 10 µg/ml) | no binding (tested: 10 µg/ml) | ~1110 | > 1 | > 3
3 | I-C2 IgG1 (antibody, V domains shown, Human IgG1) VH: EVQLVESGGGLVQPGGSLRLSCAASGFSLSTSGYGVGWVRQAPGKGLEWLAHIWWDDDKYYVDSVKGRFTISRDNAKNSLYLQMNSLRAEDTAVYYCARTRLYFPFAYWGQGTLVTVSS VL: EIVLTQSPATLSLSPGERATLSCRASQNVGSNLAWYQQKPGQAPRLLIYSASNRYSGIPARFSGSGSGTDFTLTISSLEPEDFAVYYCQQYSTDPLTFGGGTKVEIK | ~1110 | no binding (tested: 10 µg/ml) | no binding (tested: 10 µg/ml) | no binding (tested: 10 µg/ml) | no binding (tested: 10 µg/ml) | no binding (tested: 10 µg/ml) | no binding (tested: 10 µg/ml) | ~1110 | > 1 | > 3
4 | VH3/VL2 IgG1 (antibody, V domains shown, Human IgG1; template of the mutagenesis library; also called G-VH3/VL2; VH3 family) VH: EVQLVESGGGLVQPGGSLRLSCAASGFSLSTSGMGVGWVRQAPGKGLEWLAHIWWDDDKYYVDSVKGRFTISRDNAKNSLYLQMNSLRAEDTAVYYCARTRRYFPFAYWGQGTLVTVSS VL: EIVLTQSPATLSLSPGERATLSCRASQNVGTNVAWYQQKPGQAPRLLIYSASYRYSGIPARFSGSGSGTDFTLTISSLEPEDFAVYYCQQYNTDPLTFGGGTKVEIK | ~1110 | no binding (tested: 10 µg/ml) | no binding (tested: 10 µg/ml) | no binding (tested: 10 µg/ml) | no binding (tested: 10 µg/ml) | no binding (tested: 10 µg/ml) | no binding (tested: 10 µg/ml) | ~1110 | > 1 | > 3
5 | chimeric anti-GITR IgG1 mVH/mVL (6C8 murine v-domains) (antibody, V domains shown, Full-length human IgG1, kappa; also called GITR-mVH/mVL; chimeric IgG) VH: QVTLKESGPGILKPSQTLSLTCSFSGFSLSTSGMGVGWIRQPSGKGLEWLAHIWWDDDKYYNPSLKSQLTISKDTSRNQVFLKITSVDTADAATYYCARTRRYFPFAYWGQGTLVTVSS VL: DIVMTQSQKFMSTSVGDRVSVTCKASQNVGTNVAWYQQKPGQSPKALIYSASYRYSGVPDRFTGSGSGTDFTLTINNVHSEDLAEYFCQQYNTDPLTFGAGTKLEIK | ~1110 | no binding (tested: 10 µg/ml) | no binding (tested: 10 µg/ml) | no binding (tested: 10 µg/ml) | no binding (tested: 10 µg/ml) | no binding (tested: 10 µg/ml) | no binding (tested: 10 µg/ml) | ~1110 | > 1 | > 3
